These results are taken from paper PMC11570956.

Several values for one entry are separate records, joined by “and”; a condition that tells them apart may be missing. Equal values may be shown once.

What all share (assay): fluorescence anisotropy
One data set deals with eIF4A. Particulars: 20 mM HEPES-KOH pH 7.6, 200 mM KCl, 1 mM MgCl2, 25 ± 0.5 °C; 10 nM labeled RNA; co-factors 1 µM eIF4A, 1 µM eIF4E, 1 mM ATP (2.5 µM proteins also stated).
The next data set has as its system eIF4B (Homo sapiens). Particulars: 20 mM HEPES-KOH pH 7.6, 200 mM KCl, 1 mM MgCl2, 25 ± 0.5 °C; 10 nM labeled RNA; co-factors 1 µM eIF4A, 1 µM eIF4E, 1 mM ATP (2.5 µM proteins also stated).
In data set [1] the test system is eIF4GI557-1599 (Homo sapiens). The following applies: 20 mM HEPES-KOH pH 7.6, 200 mM KCl, 1 mM MgCl2, 25 ± 0.5 °C; 10 nM labeled RNA; co-factors 1 µM eIF4A, 1 µM eIF4E, 1 mM ATP (2.5 µM proteins also stated).
In data set [2] the test system is eIF4GI557-1599;eIF4A (Homo sapiens;Homo sapiens?). Particulars: 20 mM HEPES-KOH pH 7.6, 200 mM KCl, 1 mM MgCl2, 25 ± 0.5 °C, 10 nM labeled RNA, co-factors 1 µM eIF4A, 1 µM eIF4E, 1 mM ATP (2.5 µM proteins also stated).
Data set [3] concerns eIF4GI557-1599;eIF4A;eIF4B (Homo sapiens;;Homo sapiens). Particulars: 20 mM HEPES-KOH pH 7.6, 200 mM KCl, 1 mM MgCl2, 25 ± 0.5 °C, 10 nM labeled RNA, co-factors 1 µM eIF4A, 1 µM eIF4E, 1 mM ATP (2.5 µM proteins also stated).
The subject of data set [4] is eIF4GI557-1599;eIF4A;eIF4E (Homo sapiens;;Homo sapiens). The following applies: 20 mM HEPES-KOH pH 7.6, 200 mM KCl, 1 mM MgCl2, 25 ± 0.5 °C, 10 nM labeled RNA, co-factors 1 µM eIF4A, 1 µM eIF4E, 1 mM ATP (2.5 µM proteins also stated).
For data set [5], the system named is eIF4GI557-1599;eIF4A;eIF4E;eIF4B (Homo sapiens;Homo sapiens?;Homo sapiens;Homo sapiens). The following applies: 20 mM HEPES-KOH pH 7.6, 200 mM KCl, 1 mM MgCl2, 25 ± 0.5 °C; 10 nM labeled RNA; co-factors 1 µM eIF4A, 1 µM eIF4E, 1 mM ATP (2.5 µM proteins also stated).
For data set [6], the system named is eIF4GI557-1599;eIF4E (Homo sapiens;Homo sapiens). The following applies: 20 mM HEPES-KOH pH 7.6, 200 mM KCl, 1 mM MgCl2, 25 ± 0.5 °C; 10 nM labeled RNA; co-factors 1 µM eIF4A, 1 µM eIF4E, 1 mM ATP (2.5 µM proteins also stated).
For data set [7], the system named is eIF4GI682-1599 (Homo sapiens). Particulars: 20 mM HEPES-KOH pH 7.6, 200 mM KCl, 1 mM MgCl2, 25 ± 0.5 °C; 10 nM labeled RNA; co-factors 1 µM eIF4A, 1 µM eIF4E, 1 mM ATP (2.5 µM proteins also stated).
Data set [8] has as its system eIF4GI682-1599;eIF4A (Homo sapiens;Homo sapiens?). Particulars: 20 mM HEPES-KOH pH 7.6, 200 mM KCl, 1 mM MgCl2, 25 ± 0.5 °C; 10 nM labeled RNA; co-factors 1 µM eIF4A, 1 µM eIF4E, 1 mM ATP (2.5 µM proteins also stated).
Data set [9] has as its system eIF4GI682-1599;eIF4A;eIF4E (Homo sapiens;;Homo sapiens). The following applies: 20 mM HEPES-KOH pH 7.6, 200 mM KCl, 1 mM MgCl2, 25 ± 0.5 °C; 10 nM labeled RNA; co-factors 1 µM eIF4A, 1 µM eIF4E, 1 mM ATP (2.5 µM proteins also stated).
Data set [10] concerns eIF4GI682-1599;eIF4E (Homo sapiens;Homo sapiens). The following applies: 20 mM HEPES-KOH pH 7.6, 200 mM KCl, 1 mM MgCl2, 25 ± 0.5 °C; 10 nM labeled RNA; co-factors 1 µM eIF4A, 1 µM eIF4E, 1 mM ATP (2.5 µM proteins also stated).

The term Kd denotes the equilibrium constant for the complex coming apart. Low values mean tighter binding, high ones weaker binding. Turning to FGF-9 5'UTR (uncapped), the Kd with eIF4A is 667 nM and 115 nM; with eIF4B (Homo sapiens) it was 38 nM; in data set [1], 14 nM; in data set [2], 14 nM; in data set [2] (no nucleotide) it was 16 nM; in data set [3], 19 nM. Also, the equilibrium dissociation constant (Kd) amounted to 20 nM in [3] (AMP-PNP); 24 nM in data set [3] (no nucleotide); 18 nM in data set [4]; 13 nM in data set [4] (ADP); 15 nM in data set [4] (no nucleotide); 14 nM in data set [5]. The dissociation constant (Kd) is 16 nM in [6]; 120 nM in data set [7]; 26 nM and 16 nM in [8]; 20 nM and 30 nM in data set [9]; 110 nM in [10].
As for HIF-1α 5'UTR (uncapped), the Kd with eIF4A was 252 nM and 28 nM; with eIF4B (Homo sapiens) it was 54 nM; in [1] it was 50 nM; in data set [2], 13 nM; in [2] (no nucleotide), 17 nM; in data set [3], 17 nM. The Kd stood at 14 nM in data set [3] (AMP-PNP); 12 nM in data set [3] (no nucleotide); 22 nM in data set [4]; 26 nM in data set [4] (ADP); 14 nM in [4] (no nucleotide); 19 nM in [5]. For the same substance, the dissociation constant Kd in data set [6] is 15 nM; in data set [7] it was 139 nM; in data set [8] it was 17 nM and 20 nM; in data set [9], 21 nM and 16 nM; in [10] it was 142 nM.
